According to patent US20240350588A1 (SUNSHINE LAKE PHARMA, published 2024):
Substitutions are numbered along the chain they refer to.

T1: human GFRAL (UniProtKB-Q6UXVO) (human, UniProt Q6UXV0 19-394)
T1 sequence (looked up): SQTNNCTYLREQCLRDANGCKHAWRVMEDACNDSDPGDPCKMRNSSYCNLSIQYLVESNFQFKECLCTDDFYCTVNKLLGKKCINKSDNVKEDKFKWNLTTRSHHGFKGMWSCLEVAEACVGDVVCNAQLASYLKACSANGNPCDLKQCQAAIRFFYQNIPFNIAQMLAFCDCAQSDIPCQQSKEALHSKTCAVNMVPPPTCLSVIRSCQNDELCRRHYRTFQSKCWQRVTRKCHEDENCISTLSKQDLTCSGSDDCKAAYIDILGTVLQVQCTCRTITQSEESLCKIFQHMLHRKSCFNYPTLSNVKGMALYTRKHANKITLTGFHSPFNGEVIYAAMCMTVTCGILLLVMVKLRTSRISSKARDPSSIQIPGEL

B1: Fc-GDF15 fusion protein M2 (Fc fusion)
chain: APEAAGGPSVFLFPPKPKDTLMISRTPEVTCVVVDVSQEDPEVQFNWYVDGVEVHNAKTKPREEQFNSTYRVVSVLTVLHQDWLNGKEYKCKVSNKGLPSSIEKTISKAKGQPREPQVYTLPPSQEEMTKNQVSLTCLVKGFYPSDIAVEWESNGQPENNYKTTPPVLDSDGSFFLYSRLTVDKSRWQEGNVFSCSVMHEALHNHYTQESLSLSLGGGGGSGGGGSAPAPAPAPAPAPAPAPAPAPGGGGSGGGGSARNGDHCPLGPGRCCRLHTVRASLEDLGWADWVLSPREVQVTMCIGACPSQFRAANMHAQIKTSLHRLKPDTVPAPCCVPASYNPMVLIQKTDTGVSLQTYDDLLAKDCHCI
B2: Fc-GDF15 fusion protein M29 (Fc fusion)
chain: APEAAGGPSVFLFPPKPKDTLMISRTPEVTCVVVDVSQEDPEVQFNWYVDGVEVHNAKTKPREEQFNSTYRVVSVLTVLHQDWLNGKEYKCKVSNKGLPSSIEKTISKAKGQPREPQVYTLPPSQEEMTKNQVSLTCLVKGFYPSDIAVEWESNGQPENNYKTTPPVLDSDGSFFLYSRLTVDKSRWQEGNVFSCSVMHEALHNHYTQESLSLSLGGGGGSGGGGSAPAPAPAPAPAPAPAPAPAPGGGGSGGGGSDHCPLGPGRCCRLHTVRASLEDLGWADWVLSPREVQVTMCIGDCPSQFRAANMHAQIKTSLHRLKPDTVPAPCCVPASYNPMVLIQKTDTGVSLQTYDDLLAKDCHCI
B3: Fc-GDF15 fusion protein M30 (Fc fusion)
chain: B2 chain with D299A, A306S
B4: Fc-GDF15 fusion protein M31 (Fc fusion)
chain: B2 chain with D299A, A307E
B5: Fc-GDF15 fusion protein M32 (Fc fusion)
chain: B2 chain with D299A, M309T
B6: Fc-GDF15 fusion protein M33 (Fc fusion)
chain: B2 chain with D299A, R319Q
B7: Fc-GDF15 fusion protein M34 (Fc fusion)
chain: B2 chain with D299A, A333S
B8: Fc-GDF15 fusion protein M35 (Fc fusion)
chain: B2 chain with D299A, T346E
B9: Fc-GDF15 fusion protein M36 (Fc fusion)
chain: B2 chain with D299A, K359Q
B10: Fc-GDF15 fusion protein M37 (Fc fusion)
chain: APEAAGGPSVFLFPPKPKDTLMISRTPEVTCVVVDVSQEDPEVQFNWYVDGVEVHNAKTKPREEQFNSTYRVVSVLTVLHQDWLNGKEYKCKVSNKGLPSSIEKTISKAKGQPREPQVYTLPPSQEEMTKNQVSLTCLVKGFYPSDIAVEWESNGQPENNYKTTPPVLDSDGSFFLYSRLTVDKSRWQEGNVFSCSVMHEALHNHYTQESLSLSLGGGGGSGGGGSAPAPAPAPAPAPAPAPAPAPGGGGSGGGGSCRLHTVRASLEDLGWADWVLSPREVQVTMCIGACPSQFRAANMHAQIKTSLHRLKPDTVPAPCCVPASYNPMVLIQKTDTGVSLQTYDDLLAKDCHCI
B11: Fc-GDF15 fusion protein M39 (Fc fusion)
chain: APEAAGGPSVFLFPPKPKDTLMISRTPEVTCVVVDVSQEDPEVQFNWYVDGVEVHNAKTKPREEQFNSTYRVVSVLTVLHQDWLNGKEYKCKVSNKGLPSSIEKTISKAKGQPREPQVYTLPPSQEEMTKNQVSLTCLVKGFYPSDIAVEWESNGQPENNYKTTPPVLDSDGSFFLYSRLTVDKSRWQEGNVFSCSVMHEALHNHYTQQSLSLSLGGGGGSGGGGSAPAPAPAPAPAPAPAPAPAPGGGGSGGGGSGDHCPLGPGRCCRLHTVRASLEDLGWADWVLSPREVQVTMCIGACPSQFRAANMHAQIKTSLHRLKPDTVPAPCCVPASYNPMVLIQKTDTGVSLQTYDDLLAKDCHCI
B12: Fc-GDF15 fusion protein M3 (Fc fusion)
chain: B11 chain with Q209E
B13: Fc-GDF15 fusion protein M50 (Fc fusion)
chain: B11 chain with E126Q
B14: Fc-GDF15 fusion protein M51 (Fc fusion)
chain: B2 chain with E209N, D299A
B15: Fc-GDF15 fusion protein M5 (Fc fusion)
chain: B2 chain with E209D, D299A
B16: Fc-GDF15 fusion protein M6 (Fc fusion)
chain: B2 chain with E209Q, D299A
B17: Fc-GDF15 fusion protein M7 (Fc fusion)
chain: B2 chain with E209A, D299A
B18: Fc-GDF15 fusion protein M8 (Fc fusion)
chain: B2 chain with E126K, E209K, D299A

Biological target: T1, human GFRAL (UniProtKB-Q6UXVO)
Assay: cell-based or functional assay

Binder | Relative activity ratio (native GDF15 EC50: Fc-GDF15 construct EC50), ERK1/2 phosphorylation HTRF in HEK293T cells expressing human GFRAL and RET
B1 | 3.27 ratio
B2 | 1.26 ratio
B3 | 1.51 ratio
B4 | 0.87 ratio
B5 | 1.26 ratio
B6 | 0.84 ratio
B7 | 0.9 ratio
B8 | 0.19 ratio
B9 | 0.82 ratio
B10 | 3.17 ratio
B11 | 2.62 ratio
B12 | 4.53 ratio
B13 | 1.5 ratio
B14 | 3.16 ratio
B15 | 2.47 ratio
B16 | 2.71 ratio
B17 | 3.16 ratio
B18 | 1.69 ratio
